B2: S100B (other)
chain: MSELEKAMVALIDVFHQYSGREGDKHKLKKSELKELINNELSHFLEEIKEQEVVDKVMETLDNDGDGECDFQEFMAFVAMVTTACHEFFEHE

The assay “S100B” concerns the target B2. Description: fluorescence anisotropy. In general terms: Fluorescence polarisation rises when a labelled molecule tumbles more slowly, as on binding a larger partner.
In another assay the target is pBDC-53. Kind of assay: fluorescence anisotropy.

Where no end group is shown, it is not given here. [ ]: non-standard residue; d: D form. Aib = CC(C)(N)C(=O)O

For the molecule fluorescein-QST[Aib]RH[Aib]KLMFKT[Aib]G [pBM-53 (Aib substituted p53 monomer peptide)], the Kd (usually a measure of binding affinity in units of concentration) with S100B was found to be 4600 nM.

B1: pBDC-TRTK (pBM-TRTK dimerised with a properly designed crosslinker) (peptide)
peptide: fluorescein-TRTKIDW[Aib]KIL[Aib]GGGCG
modifications: not fully specified (residue 16); also: homodimer: two copies joined at Cys16 through BMH, linker at 16 via BMH, other end not in the chain
B1 had a Kd with S100B of 32 nM.
Consider B2, for which, in the assay with pBDC-53, binding was put at a Kd of 267 nM.

Source of the values: patent publication US20140155331A1 (published 2014).
